{"source": "paper PMC10450177", "system": "CasDinG WT (Pseudomonas aeruginosa strain 83 (extrachromosomal plasmid))", "assay": "fluorescence anisotropy", "settings": "100 mM Tris pH 8.0, 1 mM TCEP, 5 mM MgCl2, +/- 1 mM AMP-PNP, 10 nM FAM-ssDNA, CasDinG 0-2.5 uM, room temperature", "data": [{"sequence": "TCGTCACCAGTACAAACTACAACGCCTGTAGCATTCCACA [40 nt ssDNA (oligo 7)]", "values": [{"measurement": "Kd", "result": 26, "unit": "nM"}, {"measurement": "Kd", "setting": "no nucleotide, 5 mM Mg2+", "result": 25, "unit": "nM"}]}]}
